Earlier results in patent US20250177452A1, “USE OF IMMUNOSUPPRESSION TO ENABLE ENGRAFTMENT OF HEMATOPOIETIC STEM CELLS” (The Board of Trustees of the Leland Stanford Junior …, priority 2022, published 2025).

Tests used:
CD52 = target: T1, CD52 (Homo sapiens, UniProt P31358); settings: single injection
T1 construct: CD52 is expressed on 95% of peripheral blood lymphocytes, monocytes and thymocytes; host or cells: endogenous CD52 on peripheral blood lymphocytes in vivo

[1] = in vivo

Row | Molecule | depletion of lymphocytes (CD52) | maximum tolerated dose (MTD) [1]
1 | Alemtuzumab: recombinant humanized monoclonal antibody against CD52 | over 99% | 
2 | IMGN901: CD56-targeting antibody-drug conjugate delivering the cytotoxic maytansinoid DM1 (conjugate, chains of the INN, looked up, DM1 maytansinoid payload, CD56-targeting antibody-drug conjugate delivering the cytotoxic maytansinoid DM1) VH: QVQLVESGGGVVQPGRSLRLSCAASGFTFSSFGMHWVRQAPGKGLEWVAYISSGSFTIYYADSVKGRFTISRDNSKNTLYLQMNSLRAEDTAVYYCARMRKGYAMDYWGQGTLVTVSS VL: DVVMTQSPLSLPVTLGQPASISCRSSQIIIHSDGNTYLEWFQQRPGQSPRRLIYKVSNRFSGVPDRFSGSGSGTDFTLKISRVEAEDVGVYYCFQGSHVPHTFGQGTKVEIK |  | about 75 mg/m^2
